Measurements published in patent CN114437226A (HANGZHOU CYANINE INGENKANG BIOTECHNOLOGY LTD COMPANY, dated 2022).
Numbering of substitutions follows the chain as printed. Numbers in names are those of the source. Blank lines part the entries; values can stand above or below the binder they belong to.

Target: T1, 人白介素22(IL22)(Sino Biological) (human, UniProt Q9GZX6 34-179)
T1 sequence (looked up): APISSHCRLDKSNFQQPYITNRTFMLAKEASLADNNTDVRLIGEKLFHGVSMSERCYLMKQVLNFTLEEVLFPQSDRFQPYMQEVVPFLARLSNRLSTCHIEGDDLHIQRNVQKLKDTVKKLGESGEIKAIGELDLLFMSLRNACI
Assay: ELISA, IL22-coated plate (Fig 11)

binding result: binds
B1: FezHλ-ClaH(K218C)κ(F118C) (bispecific antibody, human IgG1, lambda)
heavy 1: QVQLVQSGAEVKKPGASVKVSCKASGYTFTNYYMHWVRQAPGQGLEWVGWINPYTGSAFYAQKFRGRVTMTRDTSISTAYMELSRLRSDDTAVYYCAREPEKFDSDDSDVWGRGTLVTVSSASTKGPSVFPLAPSSKSTSGGTAALGCLVKDYFPEPVTVSWNSGALTSGVHTFPAVLQSSGLYSLSSVVTVPSSSLGTQTYICNVNHKPSNTKVDKKVEPKSCDKTHTCPPCPAPELLGGPSVFLFPPKPKDTLMISRTPEVTCVVVDVSHEDPEVKFNWYVDGVEVHNAKTKPREEQYNSTYRVVSVLTVLHQDWLNGKEYKCKVSNKALPAPIEKTISKAKGQPREPQVYTLPPSREEMTKNQVSLSCAVKGFYPSDIAVEWESNGQPENNYKTTPPVLDSDGSFFLVSKLTVDKSRWQQGNVFSCSVMHEALHNRFTQKSLSLSPGHHHHHH
light 1: QAVLTQPPSVSGAPGQRVTISCTGSSSNIGAGYGVHWYQQLPGTAPKLLIYGDSNRPSGVPDRFSGSKSGTSASLAITGLQAEDEADYYCQSYDNSLSGYVFGGGTQLTVLGQPKAAPSVTLFPPSSEELQANKATLVCLISDFYPGAVTVAWKADSSPVKAGVETTTPSKQSNNKYAASSYLSLTPEQWKSHRSYSCQVTHEGSTVEKTVAPTECS
heavy 2: not shown
light 2: AIQMTQSPSSLSASVGDRVTITCQASQSINNELSWYQQKPGKAPKLLIYRASTLASGVPSRFSGSGSGTDFTLTISSLQPDDFATYYCQQGYSLRNIDNAFGGGTKVEIKRTVAAPSVFICPPSDEQLKSGTASVVCLLNNFYPREAKVQWKVDNALQSGNSQESVTEQDSKDSTYSLSSTLTLSKADYEKHKVYACEVTHQGLSSPVTKSFNRGEV
notes: also called K218C/F118C

binding result: binds
B2: FezHλ-ClaH(S132C)κ(F116C) (bispecific antibody, human IgG1, lambda)
heavy 1: B1 heavy 1
light 1: B1 light 1
heavy 2: not shown
light 2: B1 light 2 with F119C, C121F
notes: also called S132C/F116C
